Legend:
[1] = biological target: T1, CD40 expressed on the surface of human peripheral blood mononuclear cells (human, UniProt P25942 21-277); assay: flow cytometry on human PBMC
T1 construct: Native CD40 on primary human cells (PBMC, B cells, monocyte-derived dendritic cells); also called native CD40 protein; CD40 on the surface of B cells
Procedure: PMBC were stained with an anti-human CD19 antibody labelled with PE. […] Lymphocytes were gated based on FSC-A and SSC-A signals.
FACS staining was carried out on 10⁶ human PBMC per well. […] Cells were washed twice with FACS buffer and resuspended in 20 μl of BV421 anti-mouse Ig diluted in FACS buffer and incubated for 30 minutes. Cells were washed twice with FACS buffer and resuspended in 20 μl of PE anti-human CD19 diluted in FACS buffer and incubated for 30 minutes. Cells were washed once with FACS buffer and once with PBS and resuspended in 100 μl of 1% formaldehyde in PBS and incubated for 20 minutes. Cells were washed twice with FACS buffer and resuspended in 200 μl of FACS buffer for analysis.
FACS staining controls included an unstained control, PE anti-human CD19 and BV421 mouse anti-human Ig single stain controls and human IgG1 isotype control. Cell staining was analysed using a FACS Canto II flow cytometer (BD). PMT voltages and gates for analysis were set using the FACS staining controls.

[2] = biological target: T2, recombinant human CD40 extracellular domain with a C-terminal human IgG1 Fc domain and 6His tag (BioLegend) (human); assay: SPR Biacore T200, SVX-3001 amine-coupled to CM5, CD40-Fc analyte, 1:1 model; value 1
T2 construct: Bought reagent; also called CD40-Fc
Procedure: (§1) Method: Kinetic analysis by surface plasmon resonance (SPR) was carried out using the Biacore T200 (GE Healthcare). HBS-EP+ buffer was used as running buffer throughout.
(§2) Target immobilisation level: 600 RU. Wash solution: Ethanolamine.
(§3) Injection parameters for the sample were contact time: 120 seconds, flow rate: 30 μI/min, dissociation time: 300 seconds. Injection parameters for regeneration were contact time: 30 seconds, flow rate: 30 μI/min, stabilisation period: 0 seconds. Regeneration solution was either 10 mM glycine-HCl buffer pH 1.5 or 50 mM NaOH. The concentrations of CD40-His and CD40-Fc used for the kinetic analysis were […]. The model 1:1 binding was used for curve fitting.

[3] = biological target: T2, recombinant human CD40 extracellular …; assay: SPR Biacore T200, SVX-3001 amine-coupled to CM5, CD40-Fc analyte, 1:1 model; value 2
Procedure: as §1, §2, §3

[4] = biological target: T2, recombinant human CD40 extracellular …; assay: SPR Biacore T200, SVX-3001 amine-coupled to CM5, CD40-Fc analyte, 1:1 model; value 3
Procedure: as §1, §2, §3

[5] = biological target: T3, recombinant human CD40 extracellular domain with C-terminal 6His tag (Novoprotein) (human); assay: SPR Biacore T200, SVX-3001 amine-coupled to CM5, CD40-6His analyte, 1:1 model; value 1
T3 construct: Bought reagent; also called CD40-6His; CD40-His
Procedure: as §1, §2, §3

[6] = biological target: T3, recombinant human CD40 extracellular …; assay: SPR Biacore T200, SVX-3001 amine-coupled to CM5, CD40-6His analyte, 1:1 model; value 2
Procedure: as §1, §2, §3

[7] = biological target: T3, recombinant human CD40 extracellular …; assay: SPR Biacore T200, SVX-3001 amine-coupled to CM5, CD40-6His analyte, 1:1 model; value 3
Procedure: as §1, §2, §3

[8] = biological target: T2, recombinant human CD40 extracellular …; assay: SPR Biacore T200, SVX-3001 amine-coupled to CM5, CD40-Fc analyte, 1:1 model; average of three
Procedure: as §1, §2, §3

[9] = biological target: T3, recombinant human CD40 extracellular …; assay: SPR Biacore T200, SVX-3001 amine-coupled to CM5, CD40-6His analyte, 1:1 model; average of three
Procedure: as §1, §2, §3

T2 sequence (P25942 21-193): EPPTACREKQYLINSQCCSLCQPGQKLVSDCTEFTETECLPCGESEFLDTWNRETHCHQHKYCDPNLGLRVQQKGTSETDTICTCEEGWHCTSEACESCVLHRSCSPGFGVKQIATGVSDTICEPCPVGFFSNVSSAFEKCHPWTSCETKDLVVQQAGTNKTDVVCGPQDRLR
T3 sequence (P25942 21-193): as above
T1 sequence (P25942 21-277 limits assumed): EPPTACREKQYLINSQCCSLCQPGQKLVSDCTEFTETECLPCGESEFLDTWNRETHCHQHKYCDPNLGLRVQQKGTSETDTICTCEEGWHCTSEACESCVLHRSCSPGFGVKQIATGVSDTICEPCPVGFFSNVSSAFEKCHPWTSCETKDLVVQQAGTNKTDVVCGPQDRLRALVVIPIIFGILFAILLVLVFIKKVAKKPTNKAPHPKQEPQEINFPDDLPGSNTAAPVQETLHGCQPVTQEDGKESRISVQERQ

binding result [1]: binds
Kd [2]: 0.323 nM
koff [2]: 0.000232 s⁻¹
kon [2]: 717000 M⁻¹ s⁻¹
Kd [3]: 1.12 nM
koff [3]: 0.000555 s⁻¹
kon [3]: 497000 M⁻¹ s⁻¹
Kd [4]: 0.308 nM
koff [4]: 0.000203 s⁻¹
kon [4]: 661000 M⁻¹ s⁻¹
Kd [5]: 5.33 nM
koff [5]: 0.00381 s⁻¹
kon [5]: 715000 M⁻¹ s⁻¹
Kd [6]: 6.5 nM
koff [6]: 0.00409 s⁻¹
kon [6]: 628000 M⁻¹ s⁻¹
Kd [7]: 6.51 nM
koff [7]: 0.00375 s⁻¹
kon [7]: 576000 M⁻¹ s⁻¹
Kd [8]: 0.583 nM
koff [8]: 0.00033 s⁻¹
kon [8]: 621000 M⁻¹ s⁻¹
Kd [9]: 6.11 nM
koff [9]: 0.00388 s⁻¹
kon [9]: 640000 M⁻¹ s⁻¹
B1: Humanized anti-human CD-40 antibody SVX-3001 (antibody, human IgG1, kappa, V domains shown)
VH: QVQLQQSGPGLVKPSQSLSLTCAVSGYSITTNYYWNWIRQAPGKGLEWVGYIRYDGTTYYAPSLKGRFSITRDTSKNQFFLQLTSVTPEDTATYYCARLDYWGQGTLVTVSS
VL: DIVMTQSPLSLSVSLGDRASISCRSSQSLENSNGNTFLNWFQQKPGQSPQLLIYRVSNRFSGVPDRFSGSGSGTDFTLKISRVEAEDEGVYFCLQVTHVPYTFGGGTKLEIKR
notes: Human IgG1 heavy chain constant region and human kappa light chain constant region; made in HEK 293T cells, used as supernatant or Protein G purified; also called humanised agonist anti-human CD40 antibody; Selvax01

Source: patent US20230227567A1 (SELVAX, published 2023)
